Experimental data published in patent publication US20110092418A1 (FLOREKY INSTITUTE OF EXPERIMENTAL PHYSIOLOGY AND MEDICINE, published 2011).
No end group written: not given here.

T1: LGR7 (RXFP1) receptor (UniProt Q9HBX9 1-757, limits assumed)
T1 construct: whole, on cells
T1 sequence (looked up): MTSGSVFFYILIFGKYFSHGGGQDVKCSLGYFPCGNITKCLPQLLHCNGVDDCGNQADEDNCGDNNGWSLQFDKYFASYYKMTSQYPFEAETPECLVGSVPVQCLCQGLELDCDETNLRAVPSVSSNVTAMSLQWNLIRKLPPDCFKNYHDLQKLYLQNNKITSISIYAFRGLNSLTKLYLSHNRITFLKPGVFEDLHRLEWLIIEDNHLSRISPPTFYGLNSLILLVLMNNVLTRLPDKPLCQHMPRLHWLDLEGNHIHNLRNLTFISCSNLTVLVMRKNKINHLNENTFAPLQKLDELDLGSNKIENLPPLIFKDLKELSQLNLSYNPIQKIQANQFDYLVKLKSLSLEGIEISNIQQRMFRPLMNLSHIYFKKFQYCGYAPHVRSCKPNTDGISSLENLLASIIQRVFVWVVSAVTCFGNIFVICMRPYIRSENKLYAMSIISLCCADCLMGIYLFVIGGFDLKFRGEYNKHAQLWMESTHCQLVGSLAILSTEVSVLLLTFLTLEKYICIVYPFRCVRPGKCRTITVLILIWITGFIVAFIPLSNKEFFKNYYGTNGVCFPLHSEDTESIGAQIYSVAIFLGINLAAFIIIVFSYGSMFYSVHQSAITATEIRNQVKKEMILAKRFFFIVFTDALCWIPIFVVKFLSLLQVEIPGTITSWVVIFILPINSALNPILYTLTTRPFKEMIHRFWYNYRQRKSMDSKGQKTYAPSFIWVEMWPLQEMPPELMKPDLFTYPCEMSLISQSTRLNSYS

B1: human relaxin 2 (H2), wild-type; A + B chain (ligand)
chain 1: DSWMEEVIKLCGRELVRAQIAICGMSTWS
chain 2: QLYSALANKCCHVGCTKRSLARFC
modifications: disulfide (positions not given here); also: A and B chains joined by disulphide bonds, places not given here
notes: Two-chain peptide hormone, A and B chains joined by disulphide bonds; also called H2 relaxin
B2: chimeric relaxin polypeptide H2 B chain/INSL3 A chain (designed binder)
chain 1: DSWMEEVIKLCGRELVRAQIAICGMSTWS
chain 2: AAATNPARYCCLSGCTQQDLLTLCPY
notes: Synthetic two-chain chimera; The synthesis protocol is detailed only for H2-B/H1-A; also called H2-B/INSL3-A
B3: human relaxin 3 (H3), wild-type; A + B chain (ligand)
chain 1: RAAPYGVRLCGREFIRAVIFTCGGSRW
chain 2: DVLAGLSSSCCKWGCSKSEISSLC
modifications: disulfide (positions not given here); also: A and B chains joined by disulphide bonds, places not given here
notes: domain: B chain; Two-chain peptide hormone, A and B chains joined by disulphide bonds; also called H3 relaxin
B4: chimeric relaxin polypeptide H2 B chain/H3 relaxin A chain (designed binder)
chain 1: DSWMEEVIKLCGRELVRAQIAICGMSTWS
chain 2: DVLAGLSSSCCKWGCSKSEISSLC
notes: Synthetic two-chain chimera; The synthesis protocol is detailed only for H2-B/H1-A; also called H2-B/H3-A
B5: chimeric relaxin polypeptide H2 B chain/INSL5 A chain (designed binder)
chain 1: DSWMEEVIKLCGRELVRAQIAICGMSTWS
chain 2: DLQTLCCTDGCSMTDLSALC
notes: Synthetic two-chain chimera; The synthesis protocol is detailed only for H2-B/H1-A; also called H2-B/INSL5-A

Target: T1, LGR7 (RXFP1) receptor
Assay: whole cell competition binding against 100 pM [125I]-H2 relaxin, LGR7-transfected HEK293T cells
Protocol: Non-specific binding was determined by addition of excess unlabelled relaxin (500 nM). Data were analysed using GraphPad Prism.

| pKi [pKi] | Binder |
| --- | --- |
| 9.03 | B1 |
| 6.21 | B2 |
| 7.88 | B3 |
| 6.8 | B4 |
| 5.31 | B5 |

Target: T1, LGR7 (RXFP1) receptor
Assay: cell-based or functional assay

| LGR7 cAMP pEC50 [pEC50] | Binder |
| --- | --- |
| 10.3 | B1 |
| < 6 | B2 |
| 9.36 | B3 |
| 8.1 | B4 |
| 6.37 | B5 |

Target: LGR8 (RXFP2) receptor (UniProt Q8WXD0 1-754, limits assumed)
Sequence (Q8WXD0 whole entry): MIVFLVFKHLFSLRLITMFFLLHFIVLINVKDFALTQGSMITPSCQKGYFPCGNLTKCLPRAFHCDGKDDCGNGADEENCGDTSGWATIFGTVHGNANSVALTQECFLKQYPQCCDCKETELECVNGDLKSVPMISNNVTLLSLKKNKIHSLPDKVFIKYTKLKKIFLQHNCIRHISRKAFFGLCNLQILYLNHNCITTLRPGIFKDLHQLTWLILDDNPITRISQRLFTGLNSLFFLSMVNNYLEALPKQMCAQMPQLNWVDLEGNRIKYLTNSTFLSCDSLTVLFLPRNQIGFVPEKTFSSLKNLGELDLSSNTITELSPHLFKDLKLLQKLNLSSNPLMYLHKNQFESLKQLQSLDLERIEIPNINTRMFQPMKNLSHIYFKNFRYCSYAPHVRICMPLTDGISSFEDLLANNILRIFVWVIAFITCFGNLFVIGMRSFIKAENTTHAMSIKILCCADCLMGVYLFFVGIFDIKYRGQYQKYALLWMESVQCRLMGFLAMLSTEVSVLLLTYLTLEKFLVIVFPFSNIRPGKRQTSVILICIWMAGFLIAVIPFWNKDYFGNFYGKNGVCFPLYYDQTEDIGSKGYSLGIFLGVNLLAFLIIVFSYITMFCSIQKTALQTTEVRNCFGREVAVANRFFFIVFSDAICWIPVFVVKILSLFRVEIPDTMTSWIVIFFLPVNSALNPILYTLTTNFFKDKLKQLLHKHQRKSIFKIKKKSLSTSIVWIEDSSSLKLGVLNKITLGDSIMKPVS
Assay: cell-based or functional assay

| LGR8 cAMP pEC50 [pEC50] | Binder |
| --- | --- |
| 9.13 | B1 |
| > 6 | B2 |
| 5.34 | B4 |
